Experimental data reported in paper PMC4357710, “TEFM is a potent stimulator of mitochondrial transcription elongation in vitro” (Nucleic Acids Research, 2015).

How the values were obtained:
[1] = molecular target: the molecule itself; experiment: SEC; analytic gel filtration of recombinant TEFM; apparent molecular weight 82 kDa against 37.6 kDa for the chain
POLRMT = POLRMT (Homo sapiens, UniProt O00411 42-1230); experiment: MST; 500 uM ATP (one nt incorporation, paused), 10 mM Mg2+, no TEFM; MST: 25 mM Tris-HCl pH 8.0, 100 mM NaCl, 10 mM MgCl2, 10% glycerol, 1 mM DTT, 500 uM ATP, 0.05% Tween-20, 15 nM template, 22 C; footprinting: 25 mM Tris-HCl pH; settings: protein: recombinant; label: 5' Alexa488 on DNA; 8 bp DNA:RNA hybrid; DNA 5' overhang 10 nt; RNA 5' overhang 4 nt (UUUU)
POLRMT;TEFM = POLRMT;TEFM (Homo sapiens;Homo sapiens, UniProt O00411;Q96QE5 42-1230;36-360, |); experiment: MST; POLRMT titrated with 2000 nM TEFM; 500 uM ATP (one nt incorporation, paused), 10 mM Mg2+; MST: 25 mM Tris-HCl pH 8.0, 100 mM NaCl, 10 mM MgCl2, 10% glycerol, 1 mM DTT, 500 uM ATP, 0.05% Tween-20, 15 nM template, 22 C; footprinting: 25 mM Tris-HCl pH; settings: protein: recombinant;recombinant; copies: 1;2; label: 5' Alexa488 on DNA; 8 bp DNA:RNA hybrid; DNA 5' overhang 10 nt; RNA 5' overhang 4 nt (UUUU)
Sequence of POLRMT;TEFM (O00411 42-1230, chain 1 of 2, one chain of several): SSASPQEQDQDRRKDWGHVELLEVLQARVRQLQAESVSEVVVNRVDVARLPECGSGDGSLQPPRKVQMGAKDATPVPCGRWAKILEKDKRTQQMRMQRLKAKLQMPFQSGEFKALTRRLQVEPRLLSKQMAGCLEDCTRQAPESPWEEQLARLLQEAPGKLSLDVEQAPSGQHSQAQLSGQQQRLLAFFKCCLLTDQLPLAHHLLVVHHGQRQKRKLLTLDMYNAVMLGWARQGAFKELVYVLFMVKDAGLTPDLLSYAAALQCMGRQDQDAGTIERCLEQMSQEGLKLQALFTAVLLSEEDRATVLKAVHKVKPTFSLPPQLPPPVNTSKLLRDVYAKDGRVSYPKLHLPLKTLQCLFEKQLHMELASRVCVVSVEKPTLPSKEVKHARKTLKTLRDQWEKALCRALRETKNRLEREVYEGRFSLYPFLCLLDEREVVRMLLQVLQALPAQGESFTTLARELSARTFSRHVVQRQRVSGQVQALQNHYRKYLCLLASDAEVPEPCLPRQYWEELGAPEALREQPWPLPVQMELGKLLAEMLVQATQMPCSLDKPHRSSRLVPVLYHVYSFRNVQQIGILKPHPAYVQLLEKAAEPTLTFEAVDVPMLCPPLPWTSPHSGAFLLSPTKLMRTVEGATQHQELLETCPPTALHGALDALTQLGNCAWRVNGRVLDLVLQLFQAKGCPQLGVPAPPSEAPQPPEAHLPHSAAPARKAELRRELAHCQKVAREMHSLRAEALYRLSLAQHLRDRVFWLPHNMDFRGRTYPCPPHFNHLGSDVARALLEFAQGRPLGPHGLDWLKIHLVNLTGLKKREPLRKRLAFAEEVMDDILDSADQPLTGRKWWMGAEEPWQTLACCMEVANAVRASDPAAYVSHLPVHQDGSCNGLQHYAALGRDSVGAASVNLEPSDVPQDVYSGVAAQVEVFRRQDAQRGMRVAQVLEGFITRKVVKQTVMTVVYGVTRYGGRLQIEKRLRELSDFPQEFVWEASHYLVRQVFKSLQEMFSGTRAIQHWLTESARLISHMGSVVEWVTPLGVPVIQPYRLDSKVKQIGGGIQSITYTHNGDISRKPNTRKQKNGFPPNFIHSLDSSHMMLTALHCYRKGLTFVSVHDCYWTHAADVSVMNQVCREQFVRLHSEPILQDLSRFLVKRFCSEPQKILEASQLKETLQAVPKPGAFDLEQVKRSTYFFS

Sequence of POLRMT (O00411 42-1230): as the sequence (O00411 42-1230, chain 1 of 2, one chain of several) above

Row | Binder | stoichiometry N [1] | Kd (POLRMT) [nM] | Kd (POLRMT;TEFM) [nM]
1 | human TEFM (mitochondrial transcription elongation factor), residues 36-360 (natural protein, UniProt Q96QE5 36-360, looked up, amine-labeled with NT-547 dye (only in the MST with POLRMT), human TEFM, UniProt Q96QE5, residues 36-360; lacks the predicted mitochondrial targeting signal; The gel filtration used unlabelled protein; the MST used NT-547-labelled protein; also called recombinant TEFM; recombinant human TEFM; source: KRX cells (Promega), purified (Ni-IMAC, TEV cleavage, HiTrap Heparin, Sephacryl S-200 gel filtration); not shown: His6, N-terminal, cleaved) KSTTPKKITPNVTFCDENAKEPENALDKLFSSEQQASILHVLNTASTKELEAFRLLRGRRSINIVEHRENFGPFQNLESLMNVPLFKYKSTVQVCNSILCPKTGREKRKSPENRFLRKLLKPDIERERLKAVNSIISIVFGTRRIAWAHLDRKLTVLDWQQSDRWSLMRGIYSSSVYLEEISSIISKMPKADFYVLEKTGLSIQNSSLFPILLHFHIMEAMLYALLNKTFAQDGQHQVLSMNRNAVGKHFELMIGDSRTSGKELVKQFLFDSILKADPRVFFPSDKIVHYRQMFLSTELQRVEELYDSLLQAIAFYELAVFDSQP | 2 | – | –
2 | elongation-like DNA:RNA template (18-mer DNA / 12-mer RNA) (DNA:RNA) DNA: GGGAATGCATGGCGCGGC RNA: UUUUGCCGCGCC | – | 47.8 ± 2.88 | 11.2 ± 1
